Data published in paper PMC5374410, “Identification of a Potent Allosteric Inhibitor of Human Protein Kinase CK2 by Bacterial Surface Display Library Screening” (Pharmaceuticals, 2017).

T1: human αS1-casein (170 aa) displayed on E. coli UT5600(DE3) by autodisplay (plasmid pKP10) (human, UniProt P47710 16-185)
T1 construct: human αS1-casein as autodisplay passenger, 510 nt, 170 aa as printed; Passenger between the cleaved signal peptide of the autotransporter precursor and the linker; also called full-length αS1-casein; not shown: AIDA-I autotransporter linker and β-barrel, C-terminal, kept
T1 sequence (looked up): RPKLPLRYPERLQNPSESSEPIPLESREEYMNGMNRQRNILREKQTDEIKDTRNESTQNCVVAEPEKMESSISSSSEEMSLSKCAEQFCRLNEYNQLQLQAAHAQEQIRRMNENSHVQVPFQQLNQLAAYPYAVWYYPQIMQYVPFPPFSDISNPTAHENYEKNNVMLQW

B1: recombinant human protein kinase CK2 holoenzyme coupled to fluorescein isothiocyanate (FITC) (complex)
chain 1: MSGPVPSRARVYTDVNTHRPREYWDYESHVVEWGNQDDYQLVRKLGRGKYSEVFEAINITNNEKVVVKILKPVKKKKIKREIKILENLRGGPNIITLADIVKDPVSRTPALVFEHVNNTDFKQLYQTLTDYDIRFYMYEILKALDYCHSMGIMHRDVKPHNVMIDHEHRKLRLIDWGLAEFYHPGQEYNVRVASRYFKGPELLVDYQMYDYSLDMWSLGCMLASMIFRKEPFFHGHDNYDQLVRIAKVLGTEDLYDYIDKYNIELDPRFNDILGRHSRKRWERFVHSENQHLVSPEALDFLDKLLRYDHQSRLTAREAMEHPYFYTVVKDQARMGSSSMPGGSTPVSSANMMSGISSVPTPSPLGPLAGSPVIAAANPLGMPVPAAAGAQQ
chain 2: not shown
modifications: FITC covalently coupled to the holoenzyme, sites not stated | FITC covalently coupled to the holoenzyme, sites not stated
notes: catalytic subunit CK2α of human protein kinase CK2; regulatory subunit CK2β of human protein kinase CK2; FITC-labelled in the flow cytometry; also called CK2-FITC; fluorophore coupled CK2; source: E. coli BL21(DE3), purified (protocol of Grankowski et al. with modifications), FITC labeling Kit (Calbiochem); copies: 2 + 2

How the values were obtained:
[1] = molecular target: B1; assay: cell-based or functional assay
[2] = molecular target: human CK2α, catalytic subunit alone (unlabelled) (human, UniProt P68400 1-391); assay: cell-based or functional assay
[3] = molecular target: B1; assay: cell-based or functional assay; remark: listed apart in the source
[4] = molecular target: T1, human αS1-casein (170 aa) displayed on …; assay: flow cytometry on cells; E. coli UT5600(DE3) cells displaying the passenger by autodisplay incubated with fluorescein-coupled CK2 holoenzyme for 30 min at 37 °C in 50 mM Tris/HCl pH 7.4, 100 mM NaCl, 10 mM MgCl2, 1 mM DTT, 200 µM ATP; washed; excitation 488 nm, 527/30 nm filter; host strain without plasmid as control; conditions: one partner purified

Row | Ki, taken as equal to the IC50 of the CE kinase assay (non-competitive inhibition with α = 1) [1] | IC50 of inhibition of the kinase activity of the catalytic subunit CK2α alone, CE assay [2] | IC50 of inhibition of the kinase activity of (unlabelled) CK2 holoenzyme, CE assay with substrate peptide … [3] | fold fluorescence intensity over control cells [4] | Binder
1 | 800 nM | 800 nM | 800 nM |  | DCRGLIVMIKLH [peptide B2 (free synthetic peptide)]
2 |  |  |  | 10 fold | B1
